Source: patent publication US20160201097A1, “Materials and Methods of Producing 7-Carbon Monomers” (INVISTA North America S.á.r.l., priority 2014, published 2016)

Key:
[1] = carboxylate reductase activity: N7-acetyl-7-aminoheptanoate to N7-acetyl-7-aminoheptanal (NADPH consumption, A340); format: biochemical; settings: purified enzyme enhanced by sfp gene product, 2 mM N7-acetyl-7-aminoheptanoate, pH 7.5, room temperature, 20 min; against the empty vector control (FIG. 10)
Description: The activity of each of the N-terminal His-tagged carboxylate reductases of SEQ ID NOs: 3, 5, and 6 (see Examples 2 and 3, and FIG. 6) for converting N7-acetyl-7-aminoheptanoate to N7-acetyl-7-aminoheptanal was assayed in triplicate in a buffer composed of a final concentration of 50 mM HEPES buffer (pH=7.5), 2 mM N7-acetyl-7-aminoheptanoate, 10 mM MgCl2, 1 mM ATP, and 1 mM NADPH. The assays were initiated by adding purified carboxylate reductase and phosphopantetheine transferase or the empty vector control to the assay buffer containing the N7-acetyl-7-aminoheptanoate then incubated at room temperature for 20 min. The consumption of NADPH was monitored by absorbance at 340 nm.

[2] = carboxylate reductase activity: pimelate to pimelate semialdehyde (NADPH consumption, A340); format: biochemical; settings: purified enzyme enhanced by sfp gene product, 2 mM pimelate, pH 7.5, room temperature, 20 min; against the empty vector control (FIG. 8)
Description: A nucleotide sequence encoding a HIS-tag was added to the nucleic acid sequences from Segniliparus rugosus and Segniliparus rotundus that encode the carboxylate reductases of SEQ ID NOs: 4 (EFV11917.1) and 6 (ADG98140.1), respectively (see FIG. 6), such that N-terminal HIS tagged carboxylate reductases could be produced. Each of the modified genes was cloned into a pET Duet expression vector along with a sfp gene encoding a HIS-tagged phosphopantetheine transferase from Bacillus subtilis, both under the T7 promoter. Each expression vector was transformed into a BL21[DE3] E. coli host and the resulting recombinant E. coli strains were cultivated at 37° C. in a 250 mL shake flask culture containing 50 mL LB media and antibiotic selection pressure, with shaking at 230 rpm. Each culture was induced overnight at 37° C. using an auto-induction media.
The pellet from each induced shake flask culture was harvested via centrifugation. Each pellet was resuspended and lysed via sonication, and the cell debris was separated from the supernatant via centrifugation. […]
Enzyme activity assays (i.e., from pimelate to pimelate semialdehyde) were performed in triplicate in a buffer composed of a final concentration of 50 mM HEPES buffer (pH=7.5), 2 mM pimelate, 10 mM MgCl2, 1 mM ATP and 1 mM NADPH. […] The consumption of NADPH was monitored by absorbance at 340 nm. […]

[3] = ω-transaminase activity, forward direction: pimelate semialdehyde to 7-aminoheptanoate (pyruvate formation by RP-HPLC); format: biochemical; settings: conclusion from reverse and forward assays of Example 1
Description: (§1) A nucleotide sequence encoding an N-terminal His-tag was added to the nucleic acid sequences from Chromobacterium violaceum, Pseudomonas syringae, Rhodobacter sphaeroides, and Vibrio fluvialis encoding the ω-transaminases of SEQ ID NOs: 7, 9, 10 and 12, respectively (see FIG. 6) such that N-terminal HIS tagged ω-transaminases could be produced. Each of the resulting modified genes was cloned into a pET21a expression vector under control of the T7 promoter and each expression vector was transformed into a BL21[DE3] E. coli host. The resulting recombinant E. coli strains were cultivated at 37° C. in a 250 mL shake flask culture containing 50 mL LB media and antibiotic selection pressure, with shaking at 230 rpm. Each culture was induced overnight at 16° C. using 1 mM IPTG.
(§2) The pellet from each induced shake flask culture was harvested via centrifugation. Each pellet was resuspended and lysed via sonication. The cell debris was separated from the supernatant via centrifugation and the cell free extract was used immediately in enzyme activity assays.
Enzyme activity in the forward direction (i.e., pimelate semialdehyde to 7-aminoheptanoate) was confirmed for the transaminases of SEQ ID NO 9, SEQ ID NO 10 and SEQ ID NO 12. Enzyme activity assays were performed in a buffer composed of a final concentration of 50 mM HEPES buffer (pH=7.5), 10 mM pimelate semialdehyde, 10 mM L-alanine and 100 μM pyridoxyl 5′ phosphate. Each enzyme activity assay reaction was initiated by adding a cell free extract of the ω-transaminase gene product or the empty vector control to the assay buffer containing the pimelate semialdehyde and incubated at 25° C. for 4 h, with shaking at 250 rpm. The formation of pyruvate was quantified via RP-HPLC.

[4] = ω-transaminase activity: 7-aminoheptanol to 7-oxoheptanol (L-alanine formation by RP-HPLC); format: biochemical
Description: A nucleotide sequence encoding an N-terminal His-tag was added to the Chromobacterium violaceum, Pseudomonas syringae and Rhodobacter sphaeroides nucleic acids encoding the ω-transaminases of SEQ ID NOs: 7, 9 and 10, respectively (see FIG. 6) such that N-terminal HIS tagged ω-transaminases could be produced. The modified genes were cloned into a pET21a expression vector under the T7 promoter. Each expression vector was transformed into a BL21[DE3] E. coli host. Each resulting recombinant E. coli strain were cultivated at 37° C. in a 250 mL shake flask culture containing 50 mL LB media and antibiotic selection pressure, with shaking at 230 rpm. Each culture was induced overnight at 16° C. using 1 mM IPTG.
as §2
Enzyme activity assays in the reverse direction (i.e., 7-aminoheptanol to 7-oxoheptanol) were performed in a buffer composed of a final concentration of 50 mM HEPES buffer (pH=7.5), 10 mM 7-aminoheptanol, 10 mM pyruvate, and […] pyridoxyl 5′ phosphate. Each enzyme activity assay reaction was initiated by adding cell free extract of the ω-transaminase gene product or the empty vector control to the assay buffer containing the 7-aminoheptanol and then incubated at 25° C. for 4 h, with shaking at 250 rpm. The formation of L-alanine was quantified via RP-HPLC.

[5] = ω-transaminase activity, reverse direction: 7-aminoheptanoate to pimelate semialdehyde (L-alanine formation by RP-HPLC); format: biochemical; settings: cell free extract, 10 mM 7-aminoheptanoate, 10 mM pyruvate, pH 7.5, 25° C., 4 h; against the empty vector control (FIG. 13)
Description: as §1, §2
Enzyme activity assays in the reverse direction (i.e., 7-aminoheptanoate to pimelate semialdehyde) were performed in a buffer composed of a final concentration of 50 mM HEPES buffer (pH=7.5), 10 mM 7-aminoheptanoate, 10 mM pyruvate and 100 μM pyridoxyl 5′ phosphate. Each enzyme activity assay reaction was initiated by adding cell free extract of the ω-transaminase gene product or the empty vector control to the assay buffer containing the 7-aminoheptanoate and incubated at 25° C. for 4 h, with shaking at 250 rpm. The formation of L-alanine from pyruvate was quantified via RP-HPLC.

[6] = from the literature; cited from earlier work

B1: SEQ ID NO: 5: Mycobacterium massiliense carboxylate reductase, N-terminal HIS tagged (protein)
chain: MTNETNPQQEQLSRRIESLRESDPQFRAAQPDPAVAEQVLRPGLHLSEAIAALMTGYAERPALGERARELVIDQDGRTTLRLLPRFDTTTYGELWSRTTSVAAAWHHDATHPVKAGDLVATLGFTSIDYTVLDLAIMILGGVAVPLQTSAPASQWTTILAEAEPNTLAVSIELIGAAMESVRATPSIKQVVVFDYTPEVDDQREAFEAASTQLAGTGIALETLDAVIARGAALPAAPLYAPSAGDDPLALLIYTSGSTGAPKGAMHSENIVRRWWIREDVMAGTENLPMIGLNFMPMSHIMGRGTLTSTLSTGGTGYFAASSDMSTLFEDMELIRPTALALVPRVCDMVFQRFQTEVDRRLASGDTASAEAVAAEVKADIRDNLFGGRVSAVMVGSAPLSEELGEFIESCFELNLTDGYGSTEAGMVFRDGIVQRPPVIDYKLVDVPELGYFSTDKPHPRGELLLKTDGMFLGYYKRPEVTASVFDADGFYMTGDIVAELAHDNIEIIDRRNNVLKLSQGEFVAVATLEAEYANSPVVHQIYVYGSSERSYLLAVVVPTPEAVAAAKGDAAALKTTIADSLQDIAKEIQLQSYEVPRDFIIEPQPFTQGNGLLTGIAKLARPNLKAHYGPRLEQMYAEIAEQQAAELRALHGVDPDKPALETVLKAAQALLGVSSAELAADAHFTDLGGDSLSALSFSDLLRDIFAVEVPVGVIVSAANDLGGVAKFVDEQRHSGGTRPTAETVHGAGHTEIRAADLTLDKFIDEATLHAAPSLPKAAGIPHTVLLTGSNGYLGHYLALEWLERLDKTDGKLIVIVRGKNAEAAYGRLEEAFDTGDTELLAHFRSLADKHLEVLAGDIGDPNLGLDADTWQRLADTVDVIVHPAALVNHVLPYNQLFGPNVVGTAEIIKLAITTKIKPVTYLSTVAVAAYVDPTTFDEESDIRLISAVRPIDDGYANGYGNAKWAGEVLLREAHDLCGLPVAVFRSDMILAHSRYTGQLNVPDQFTRLILSLIATGIAPGSFYQAQTTGERPLAHYDGLPGDFTAEAITTLGTQVPEGSEGFVTYDCVNPHADGISLDNFVDWLIEAGYPIARIDNYTEWFTRFDTAIRGLSEKQKQHSLLPLLHAFEQPSAAENHGVVPAKRFQHAVQAAGIGPVGQDGTTDIPHLSRRLIVKYAKDLEQLGLL
modifications: N-terminal His tag; Mycobacterium massiliense
notes: Mycobacterium massiliense carboxylate reductase, N-terminal HIS tagged
acceptance of N7-acetyl-7-aminoheptanoate as substrate (NADPH consumption) [1]: accepted N7-acetyl-7-aminoheptanoate as substrate

B2: SEQ ID NO: 4: Segniliparus rugosus carboxylate reductase, N-terminal HIS tagged (protein, listed as Segniliparus rugosus)
chain: MGDGEERAKRFFQRIGELSATDPQFAAAAPDPAVVEAVSDPSLSFTRYLDTLMRGYAERPALAHRVGAGYETISYGELWARVGAIAAAWQADGLAPGDFVATVGFTSPDYVAVDLAAARSGLVSVPLQAGASLAQLVGILEETEPKVLAASASSLEGAVACALAAPSVQRLVVFDLRGPDASESAADERRGALADAEEQLARAGRAVVVETLADLAARGEALPEAPLFEPAEGEDPLALLIYTSGSTGAPKGAMYSQRLVSQLWGRTPVVPGMPNISLHYMPLSHSYGRAVLAGALSAGGTAHFTANSDLSTLFEDIALARPTFLALVPRVCEMLFQESQRGQDVAELRERVLGGRLLVAVCGSAPLSPEMRAFMEEVLGFPLLDGYGSTEALGVMRNGIIQRPPVIDYKLVDVPELGYRTTDKPYPRGELCIRSTSLISGYYKRPEITAEVFDAQGYYKTGDVMAEIAPDHLVYVDRSKNVLKLSQGEFVAVAKLEAAYGTSPYVKQIFVYGNSERSFLLAVVVPNAEVLGARDQEEAKPLIAASLQKIAKEAGLQSYEVPRDFLIETEPFTTQNGLLSEVGKLLRPKLKARYGEALEARYDEIAHGQADELRALRDGAGQRPVVETVVRAAVAISGSEGAEVGPEANFADLGGDSLSALSLANLLHDVFEVEVPVRIIIGPTASLAGIAKHIEAERAGASAPTAASVHGAGATRIRASELTLEKFLPEDLLAAAKGLPAADQVRTVLLTGANGWLGRFLALEQLERLARSGQDGGKLICLVRGKDAAAARRRIEETLGTDPALAARFAELAEGRLEVVPGDVGEPKFGLDDAAWDRLAEEVDVIVHPAALVNHVLPYHQLFGPNVVGTAEIIRLAITAKRKPVTYLSTVAVAAGVEPSSFEEDGDIRAVVPERPLGDGYANGYGNSKWAGEVLLREAHELVGLPVAVFRSDMILAHTRYTGQLNVPDQFTRLVLSLLATGIAPKSFYQQGAAGERQRAHYDGIPVDFTAEAITTLGAEPSWFDGGAGFRSFDVFNPHHDGVGLDEFVDWLIEAGHPISRIDDHKEWFARFETAVRGLPEAQRQHSLLPLLRAYSFPHPPVDGSVYPTGKFQGAVKAAQVGSDHDVPHLGKALIVKYADDLKALGLL
modifications: N-terminal His tag
notes: Segniliparus rugosus carboxylate reductase, N-terminal HIS tagged
acceptance of pimelate as substrate (NADPH consumption) [2]: accepted pimelate as substrate

B3: SEQ ID NO: 7: Chromobacterium violaceum ω-transaminase, N-terminal HIS tagged (protein, listed as Chromobacterium violaceum)
chain: MQKQRTTSQWRELDAAHHLHPFTDTASLNQAGARVMTRGEGVYLWDSEGNKIIDGMAGLWCVNVGYGRKDFAEAARRQMEELPFYNTFFKTTHPAVVELSSLLAEVTPAGFDRVFYTNSGSESVDTMIRMVRRYWDVQGKPEKKTLIGRWNGYHGSTIGGASLGGMKYMHEQGDLPIPGMAHIEQPWWYKHGKDMTPDEFGVVAARWLEEKILEIGADKVAAFVGEPIQGAGGVIVPPATYWPEIERICRKYDVLLVADEVICGFGRTGEWFGHQHFGFQPDLFTAAKGLSSGYLPIGAVFVGKRVAEGLIAGGDFNHGFTYSGHPVCAAVAHANVAALRDEGIVQRVKDDIGPYMQKRWRETFSRFEHVDDVRGVGMVQAFTLVKNKAKRELFPDFGEIGTLCRDIFFRNNLIMRACGDHIVSAPPLVMTRAEVDEMLAVAERCLEEFEQTLKARGLA
modifications: N-terminal His tag
notes: Chromobacterium violaceum ω-transaminase, N-terminal HIS tagged
reversibility of ω-transaminase activity: pimelate semialdehyde accepted, 7-aminoheptanoate synthesized [3]: accepted pimelate semialdehyde as substrate and synthesized 7-aminoheptanoate as a reaction product
acceptance of 7-aminoheptanol as substrate (conversion of pyruvate to L-alanine) ([4]; cell free extract, 10 mM 7-aminoheptanol, 10 mM pyruvate, pH 7.5, 25° C., 4 h, against the empty vector control (FIG. 17)): accepted 7-aminoheptanol as substrate
acceptance of 7-oxoheptanol as substrate forming 7-aminoheptanol ([4]; concluded from the reversibility of the ω-transaminase activity (Example 1)): accept 7-oxoheptanol as substrate and form 7-aminoheptanol
acceptance of 7-aminoheptanoate as substrate (conversion of pyruvate to L-alanine) [5]: accepted 7-aminoheptanoate as substrate
activity on 7-aminoheptanoate (conversion to pimelate semialdehyde) [6]: demonstrated analogous activity accepting 7-aminoheptanoic acid as amino donor
